Each block holds one molecule with its values, some of them ahead of it.
How the values were obtained:
Experiment in all cases: negative-stain TEM
[1] = molecular target: PFKL-H199Y, point mutant at the sugar substrate binding site (human) (UniProt P17858)
[2] = molecular target: muscle PFK1 (PFKM), phosphofructokinase-1, 780-amino-acid isoform 2 (human) (UniProt P08237)
[3] = molecular target: platelet PFK1 (PFKP), phosphofructokinase-1 (human) (UniProt Q01813)
negative-stain TEM = molecular target: the molecule itself

stoichiometry N [1]: 4
Molecule: PFKL-H199Y, point mutant at the sugar substrate binding site (from UniProt P17858-1 1-780) (enzyme)

Molecule: muscle PFK1 (PFKM), phosphofructokinase-1, 780-amino-acid isoform 2 (from UniProt P08237-1 1-780) (enzyme)
stoichiometry N [2]: 4

Molecule: platelet PFK1 (PFKP), phosphofructokinase-1 (from UniProt Q01813 1-784) (enzyme)
stoichiometry N [3]: 4

B1: liver PFK1 (PFKL), phosphofructokinase-1, 780-amino-acid isoform b (enzyme, human, UniProt P17858-1 1-780, looked up)
chain: MAAVDLEKLRASGAGKAIGVLTSGGDAQGMNAAVRAVTRMGIYVGAKVFLIYEGYEGLVEGGENIKQANWLSVSNIIQLGGTIIGSARCKAFTTREGRRAAAYNLVQHGITNLCVIGGDGSLTGANIFRSEWGSLLEELVAEGKISETTARTYSHLNIAGLVGSIDNDFCGTDMTIGTDSALHRIMEVIDAITTTAQSHQRTFVLEVMGRHCGYLALVSALASGADWLFIPEAPPEDGWENFMCERLGETRSRGSRLNIIIIAEGAIDRNGKPISSSYVKDLVVQRLGFDTRVTVLGHVQRGGTPSAFDRILSSKMGMEAVMALLEATPDTPACVVTLSGNQSVRLPLMECVQMTKEVQKAMDDKRFDEATQLRGGSFENNWNIYKLLAHQKPPKEKSNFSLAILNVGAPAAGMNAAVRSAVRTGISHGHTVYVVHDGFEGLAKGQVQEVGWHDVAGWLGRGGSMLGTKRTLPKGQLESIVENIRIYGIHALLVVGGFEAYEGVLQLVEARGRYEELCIVMCVIPATISNNVPGTDFSLGSDTAVNAAMESCDRIKQSASGTKRRVFIVETMGGYCGYLATVTGIAVGADAAYVFEDPFNIHDLKVNVEHMTEKMKTDIQRGLVLRNEKCHDYYTTEFLYNLYSSEGKGVFDCRTNVLGHLQQGGAPTPFDRNYGTKLGVKAMLWLSEKLREVYRKGRVFANAPDSACVIGLKKKAVAFSPVTELKKDTDFEHRMPREQWWLSLRLMLKMLAQYRISMAAYVSGELEHVTRRTLSMDKGF
stoichiometry N (negative-stain TEM): 4

Source: paper PMC5551713 (The Journal of Cell Biology, 2017)
